Reference: patent US20170360911A1

Experiments:
[1] = target: HLA-A*02:01 (human); assay: T2-A24 MHC class I stabilization, flow cytometry, anti-HLA-A02 BB7.2-FITC, peptide 100 ug/mL; settings: remark: other sources report otherwise
[2] = target: HLA-A*24:02 (human)

| Binder | MFI (solvent ratio) (ratio to solvent) [1] | MFI (solvent ratio) (ratio to solvent) [2] |
| --- | --- | --- |
| EADPTGHSY [MAGE-1161-169 peptide] | 1 | – |
| RGYVYQGL (modifications not checked) [VSV52-59 peptide] | – | 1 |
